Measurements published in patent US11160869B2 (priority 2019, dated 2021).

Columns and labels:
[1] = Compression force screening, tablet properties and dimer recovery on dissolution; type: physicochemical; conditions: F1 and F2 tablets
Procedure: Various compression forces were used to create F1 tablets (TABLE 31) and F2 tablets (TABLE 32). Dimer purity of the target construct was also examined following compaction into a tablet. […] Dimer recovery was also assessed following dissolution of various tablets at pH 7.0 (FIGS. 20A-20D).
An additional tablet (F3) was created, which was similar to an F1 tablet but with glyceryl dibehenate in place of magnesium stearate (TABLE 33). This substitution was made due to incompatibility of magnesium stearate in dissolution of target constructs in solution.

[2] = test system: growth factors, chemokines and cytokines; type: in vivo, mice
STAT3 [3] = assay: In vivo pSTAT3 induction in lamina propria, immunofluorescence confocal microscopy; set-up: species or system Balb/C mice
Procedure: In vivo studies in mice were performed where the biological activity of human IL-10 following transcytosis was assessed for its ability to stimulate the mouse IL-10 receptor and increase phosphorylation of STAT3 (pSTAT3) in cells within the lamina propria.
An extensive amount of rhIL-10 (SEQ ID NO: 5) was trafficked through enterocytes. Additionally, there were a population of lymphocyte-like cells at the basolateral surface of enterocytes and within the lamina propria that were pSTAT3 positive.
Entire intestines of mice were isolated and processed as a “swiss role” and localization of pSTAT3 was detected by immunofluorescence confocal microscopy (FIG. 110).

[4] = test system: polarized gut epithelial cells; assay: In vivo transcytosis across polarized gut epithelial cells, rat jejunum, microscopy; set-up: species or system Wistar rats; conditions: luminal application to rat jejunum
Procedure: In vivo transcytosis was tested using male Wistar rats. Male Wistar rats were housed 3-5 per cage with a 12/12 h light/dark cycle and were about 225-275 g (approximately 6-8 weeks old) when placed on study. Experiments were conducted during the light phase using a non-recovery protocol that uses continuous isoflurane anesthesia. A 4-5 cm midline abdominal incision that exposed mid-jejunum regions was conducted. Stock solutions at 3.86×10^−5 M of delivery construct were prepared in phosphate buffered saline (PBS), with 50 μL (per 250 g rat) being administered by intraluminal injection (ILI) using a 29-gauge needle. The injection site mesentery was then marked with a permanent marker. […]
The delivery construct (SEQ ID NO: 5) included the cholix carrier with SEQ ID NO: 4 (and further including an N-terminal methionine) coupled to the IL-10 payload having an amino acid set forth in SEQ ID NO: 2 via a spacer having an amino acid set forth in SEQ ID NO: 6. Green fluorescence indicates the presence of IL-10 (via staining with an anti-IL-10 antibody). Blue fluorescence indicates DAPI staining, which labels DNA, and red fluorescence indicates the presence of CK-8 (cytokeratin-8) with which a cholix-derived carrier can co-localize (e.g., in a supranuclear region of an epithelial cell) during transcytosis. […]

[5] = test system: enterocytes and lamina propria cells; assay: Vesicular trafficking during apical to basal transcytosis (Rab7, Rab11, LMAN1, LAMP1), rat jejunum; type: in vivo
Procedure: Immunofluorescence microscopy images of rat jejunum were obtained following a 50 uL intraluminal injection of an IL-10 delivery construct prepared in PBS at ˜40 uM. For FIGS. 129-133: arrow=apical (luminal) epithelial membrane; dashed line=epithelial cell-basement membrane demarcation; 1-p=lamina propria; G=goblet cell. Cell nuclei stained with DAPI (blue).
The timing of LMAN1 redistribution to the basal compartment coincides with the presence of hIL-10 being ultimately detected in non-polarized cells within the lamina propria where it was not associated with LMAN1.
Ultimately, the delivery construct is delivered to lysosome-like structures within a large fraction of cells within the lamina propria, an outcome that would limit its systemic distribution following A-B transcytosis.

[6] = Oral gavage 10 mg/kg in non-inflamed mice: hIL-10 in serum and tissue, serum IL-1Ra; type: in vivo
STAT3 [7] = assay: STAT3 phosphorylation in J774.2 macrophage cells
IL-10RA and IL-10RB = biological target: T1, IL-10RA and IL-10RB (Homo sapiens, UniProt Q08334+Q13651); assay: IL-10 receptor dimerization luminescence assay in engineered U2OS cells; conditions: read-out: EC50, IL-10R dimerization; 6 h
T1 sequence (Q13651 22-578): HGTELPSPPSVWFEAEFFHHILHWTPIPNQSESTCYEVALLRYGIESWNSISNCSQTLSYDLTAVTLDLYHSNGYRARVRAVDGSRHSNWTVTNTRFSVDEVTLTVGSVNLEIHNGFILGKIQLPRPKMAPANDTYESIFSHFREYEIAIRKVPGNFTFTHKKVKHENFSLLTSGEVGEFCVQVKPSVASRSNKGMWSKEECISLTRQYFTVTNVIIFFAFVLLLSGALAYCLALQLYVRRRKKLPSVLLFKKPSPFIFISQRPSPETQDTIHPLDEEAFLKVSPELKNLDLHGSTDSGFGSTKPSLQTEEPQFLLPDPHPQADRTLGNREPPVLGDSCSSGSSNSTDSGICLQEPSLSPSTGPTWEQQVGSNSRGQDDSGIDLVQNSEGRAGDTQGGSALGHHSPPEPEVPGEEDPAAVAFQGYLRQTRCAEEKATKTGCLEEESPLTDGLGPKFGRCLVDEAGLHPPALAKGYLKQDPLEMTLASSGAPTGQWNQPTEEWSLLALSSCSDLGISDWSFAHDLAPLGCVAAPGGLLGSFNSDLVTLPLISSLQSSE
T1 sequence (Q08334 20-325): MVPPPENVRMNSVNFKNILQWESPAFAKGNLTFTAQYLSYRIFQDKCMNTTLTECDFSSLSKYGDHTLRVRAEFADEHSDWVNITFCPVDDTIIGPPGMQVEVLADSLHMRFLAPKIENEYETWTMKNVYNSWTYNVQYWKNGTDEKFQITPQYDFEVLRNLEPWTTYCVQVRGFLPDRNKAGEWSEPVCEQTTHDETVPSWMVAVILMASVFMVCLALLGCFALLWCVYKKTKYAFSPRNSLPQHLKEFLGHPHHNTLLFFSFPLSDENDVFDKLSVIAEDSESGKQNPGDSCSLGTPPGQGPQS

B1: IL-10 delivery construct: recombinant homodimeric fusion protein: N-terminal methionine, cholix386 domain, polyGlySer spacer, recombinant human IL-10 (protein)
chain: MVEEALNIFDECRSPCSLTPEPGKPIQSKLSIPSDVVLDEGVLYYSMTINDEQNDIKDEDKGESIITIGEFATVRATRHYVNQDAPFGVIHLDITTENGTKTYSYNRKEGEFAINWLVPIGEDSPASIKISVDELDQQRNIIEVPKLYSIDLDNQTLEQWKTQGNVSFSVTRPEHNIAISWPSVSYKAAQKEGSRHKRWAHWHTGLALCWLVPMDAIYNYITQQNCTLGDNWFGGSYETVAGTPKVITVKQGIEQKPVEQRIHFSKGNAMSALAAHRVCGVPLETLARSRKPRDLTDDLSCAYQAQNIVSLFVATRILFSHLDSVFTLNLDEQEPEVAERLSDLRRINENNPGMVTQVLTVARQIYNDYVTHHPGLTPEQTSAGAQAGGGGSGGGGSGGGGSPGQGTQSENSCTHFPGNLPNMLRDLRDAFSRVKTFFQMKDQLDNLLLKESLLEDFKGYLGCQALSEMIQFYLEEVMPQAENQDPDIKAHVNSLGENLKTLRLRLRRCHRFLPCENKSKAVEQVKNAFNKLQEKGIYKAMSEFDIFINYIEAYMTMKIRN
modifications: homodimer
robustness of dimer to compaction into tablet [1]: robust to compaction and granulation, although some aggregation was observed in final tablet form
plasma TGF-β relative to Vehicle ([2]; 3.0 mg/kg): reduced
production of IL-12 and IL-17 ([2]; 9.0 mg/kg): prevented
plasma MCSF ([2]; highest dose (9 mg/kg)): reduced
oxazolone-induced changes in LIX, LIF, IP10 ([2]; mouse, in vivo): mitigated
plasma IL-3, IL-4 (9.0 mg/kg), IL-28 (3.0 and 9.0 mg/kg), IL-31 (0.3 mg/kg) ([2]; mouse, in vivo): to near-base line levels
plasma MIP1α ([2]; mouse, in vivo): trend towards a reduction
oxazolone-induced increase in plasma GCSF/CSF3 ([2]; prophylactic pre-treatment): attenuated
plasma IL-13 and IL-15 ([2]; vs Vehicle): trend towards an IL-10 delivery construct-mediated decrease
phosphorylation of STAT3 in cells within the lamina propria (STAT3 [3]; intraluminal injection into jejunum): increased phosphorylation of STAT3
IL-10 activity (pSTAT3) along the intestine (STAT3 [3]; oral gavage): demonstrated along the length of intestine
earliest time of IL-10 payload transport into the lamina propria [4]: ≤ 1 min
co-localization with LMAN1 ([5]; 1-15 min): co-localized with redistributing LMAN1
co-localization with LAMP1 in polarized enterocytes ([5]; 1 min post ILI, not increasing over 15 min): Limited LAMP1/delivery construct co-localizations
co-localization with LAMP1 in non-polarized cells within the lamina propria ([5]; 10 min and 15 min post ILI): extensive LAMP1/delivery construct co-localizations
co-localization with Rab7+ vesicles in enterocytes ([5]; rat, in vivo): predominantly in the apical vesicular compartment
co-localization with Rab11+ vesicles in enterocytes ([5]; rat, in vivo): mostly in the basal vesicular compartment
time course of completion of A-B transcytosis ([5]; rat, in vivo): 10 to 15 min
onset of IL-1Ra induction ([6]; 10 mg/kg): 2.5-4 h post oral gavage
hIL-10 in small intestinal lysates relative to colonic lysates ([6]; 10 mg/kg oral gavage): ~10 fold higher
serum IL-1Ra levels ([6]; 10 mg/kg oral gavage, 4 h): significantly increased
amplitude of pSTAT3/total STAT3 (STAT3 [7]): ~1.47%
EC50 (STAT3 [7]; read-out: EC50, phosphorylation of STAT3, 20 min stimulation): 0.264 nM
EC50 (IL-10RA and IL-10RB): 0.971 nM
